# Where two headings read alike, the source gives them in different places.
# B1: 1994-01-C7 (#9): anti-α11β1 monoclonal antibody from human phage display; VH SEQ ID NO: 32, VL SEQ ID NO: 37 (antibody, V domains shown)
# VH: QVQLVQSGAEVKKPGASVKVSCKASGYTFTSYGISWVRQAPGQGLEWMGWISAYNGNTNYAQKLQGRVTMTTDTSTSTAYMELRSLRSDDTAAYYCARVTGITGTTIDPWGQGTMVTVSS
# VL: DIQMTQSPSSLSASVGDRVTITCRASQSISSYLNWYQQKPGKAPKLLIYDASSLESGVPSRFSGSGSGTEFTLTISSLQPDDFAVYYCQQYNNWPQTFGQGTKVEIK
# B2: Antibody 58: 1994-01-C7 variant; VH SEQ ID NO: 31, VL SEQ ID NO: 37 (antibody, V domains shown)
# VH: QVQLVQSGAEVKKPGASVKVSCKASGYTFTSYGISWVRQAPGQGLEWMGWISAYNANVNYAQKLQGRVTMTTDTSTSTAYMELRSLRSDDTAAYYCARVTGITGTTIGPWGQGTMVTVSS
# VL: DIQMTQSPSSLSASVGDRVTITCRASQSISSYLNWYQQKPGKAPKLLIYDASSLESGVPSRFSGSGSGTEFTLTISSLQPDDFAVYYCQQYNNWPQTFGQGTKVEIK
# B3: Antibody 60: 1994-01-C7 variant; VH SEQ ID NO: 33, VL SEQ ID NO: 37 (antibody, V domains shown)
# VH: QVQLVQSGAEVKKPGASVKVSCKASGYTFTSYGISWVRQAPGQGLEWMGWISAYNSNTNYAQKLQGRVTMTTDTSTSTAYMELRSLRSDDTAAYYCARVTGITGTTIGPWGQGTMVTVSS
# VL: DIQMTQSPSSLSASVGDRVTITCRASQSISSYLNWYQQKPGKAPKLLIYDASSLESGVPSRFSGSGSGTEFTLTISSLQPDDFAVYYCQQYNNWPQTFGQGTKVEIK
# B4: Antibody 54: 1994-01-C7 variant; VH SEQ ID NO: 30, VL SEQ ID NO: 37 (antibody, V domains shown)
# VH: QVQLVQSGAEVKKPGASVKVSCKASGYTFTSYGISWVRQAPGQGLEWMGWISAYNANTNYAQKLQGRVTMTTDTSTSTAYMELRSLRSDDTAAYYCARVTGITGTTIGPWGQGTMVTVSS
# VL: DIQMTQSPSSLSASVGDRVTITCRASQSISSYLNWYQQKPGKAPKLLIYDASSLESGVPSRFSGSGSGTEFTLTISSLQPDDFAVYYCQQYNNWPQTFGQGTKVEIK
# B5: 16E10: anti-α11β1 monoclonal antibody from B cell sorting; VH SEQ ID NO: 57, VL SEQ ID NO: 62 (antibody, V domains shown)
# VH: QSLEESGGDLVKPGASLTLTCRVSGFSFSSSYYMCWVRQAPGKGLEWIACIGTTRGSTYYATWAKGRFTISKISSTTVTLQMTSLTDADTATYFCARDATGYRINTIGLYFNLWGPGTLVTVSS
# VL: ELTQTPSSVEAAVGGTPTIKCQASQTIYSYLSWYQQKPGQPPKLLIYEASKLASGVPSRFSGSGSGTDYTLTISDLECADAATYYCQSYHGTASTEYNTFGGGTEVVVK
# B6: A11BB125: 16E10 variant; VH SEQ ID NO: 55, VL SEQ ID NO: 61 (antibody, V domains shown)
# VH: EVQLLESGGGLVQPGGSLRLSCAASGFSFSSSYYMSWVRQAPGKGLEWVSAIGTTRGSTYYADSVKGRFTISRDSSKNTLYLQMNSLRAEDTAVYYCARDATGYRINTIGLYFNLWGQGTLVTVSS
# VL: DIVMTQSPDSLAVSLGERATINCQASQTIYSYLSWYQQKPGQPPKLLIYEASKLASGVPDRFSGSGSGTDYTLTISSLQAEDVAVYYCQSYHGTASTEYNTFGGGTKVEIK
# B7: A11BB129: 16E10 variant; VH SEQ ID NO: 54, VL SEQ ID NO: 61 (antibody, V domains shown)
# VH: EVQLLESGGGLVQPGGSLRLSCAASGFSFSSSYYMSWVRQAPGKGLEWVSAIGTTRGSTYYADSVKGRFTISRDNSKNTVYLQMNSLRAEDTAVYYCARDATGYRINTIGLYFNLWGQGTLVTVSS
# VL: DIVMTQSPDSLAVSLGERATINCQASQTIYSYLSWYQQKPGQPPKLLIYEASKLASGVPDRFSGSGSGTDYTLTISSLQAEDVAVYYCQSYHGTASTEYNTFGGGTKVEIK
# B8: A11BB127: 16E10 variant; VH SEQ ID NO: 46, VL SEQ ID NO: 61 (antibody, V domains shown)
# VH: EVQLLESGGGLVQPGGSLRLSCAASGFSFSSSYYMAWVRQAPGKGLEWVSAIGTTRGSTYYADSVKGRFTISRDNSKNTVYLQMNSLRAEDTAVYYCARDATGYRINTIGLYFNLWGQGTLVTVSS
# VL: DIVMTQSPDSLAVSLGERATINCQASQTIYSYLSWYQQKPGQPPKLLIYEASKLASGVPDRFSGSGSGTDYTLTISSLQAEDVAVYYCQSYHGTASTEYNTFGGGTKVEIK
# B9: 79E3E3: anti-α11β1 monoclonal antibody from rat hybridoma; VH SEQ ID NO: 8, VL SEQ ID NO: 20 (antibody, V domains shown)
# VH: QIQLVQSGPEVKKPGESVKISCKASGYTFTDYAMNWVKQAPGNGLKWMGWINTQTGKPTYADDFKQRFVFSLETSARTTYLQINNLNIEDTATYFCTRLGTGNTKGFAYWGQGTLVTVSS
# VL: DILINQSPASLTVSAGERVTMSCKSSQSLLYSENNQDYLAWYQQKPGQFPKLLIYGASNRHTGVPDRFTGSGSGTDFTLTISSVQAEDLADYYCEQTYRYPFTFGSGTKLEIK
# How the values were obtained:
# Pulmonary Myofibroblast = experiment: FACS antibody binding to pulmonary myofibroblasts (HPF/MF); design: species or system human; settings: Table 11, 1994-01-C7 variants, FIG. 4B
# Experimental: Human Pulmonary Fibroblasts (ScienCell) were cultured in complete Fibroblast Growth Medium (ScienCell) until 80% confluent in T-150 flasks. Cells were washed and harvested using Accutase. Cells were seeded into T-150 flasks at 7,500 cells/cm^2 in complete FGF and cultured for 72 hours. Cells were then washed and starved in serum reduced medium for 24 hours. After starvation, cells were treated with TGFβ1 (R&D Systems) for 72 hours. Cells were harvested using Accutase and seeded in 96-well conical bottom plates. Cells were blocked with Heat Inactived Fetal Bovine Serum (Gibco) for 30 minutes at 4° C. Cells were then incubated with anti-al I antibodies at the doses described in each figure for 30 minutes at 4° C. A human anti-al I antibody (Creative BioLabs) was included as a positive control as well as the appropriate IgG isotype negative controls. Cells were washed twice and incubated with PE conjugated secondary antibodies specific to the IgG class of the anti-α11 antibodies being tested for 30 minutes at 4° C. Cells were washed twice and fixed in 1% PF A for 30 minutes. Cells were acquired on a FACS Verse […]. Data were analyzed by gating on single cells and determining the geometric Mean Fluorescence Intensity (gMFI) in the PE channel for each sample.
# cell-mu all = molecular target: T1, cell-mu all (Mus musculus, UniProt P61622); experiment: Binding to cells expressing mouse α11
# T1 construct: expressed in transfected cells
# CHO-hu α11 [1] = molecular target: T2, CHO-hu α11 (Homo sapiens, UniProt Q9UKX5); experiment: Cell adhesion inhibition on type I collagen (xCelligence); assay type: cell-based
# T2 construct: expressed in transfected cells; host or cells: CHO-K1
# Experimental: 0.6×10^6 cells/mL were incubated with each antibody at a range of concentrations for 20 minutes at 37° C. E-Plate VIEW 96 PET plate coated with 100 ng/ml type I collagen or PBS overnight at room temperature was blocked in 3% BSA for 1 hour at room temperature. After washing the plate with PBS, cell and antibody mixture was added to the wells and the plate was places into an xCelligence machine. Cell adhesion was recorded over 6 hours. The time point of maximum cell adhesion was used for comparison relative to control.
# CHO-hu α11 [2] = molecular target: T2, CHO-hu α11; experiment: FACS antibody binding to CHO-K1 cells expressing human α11
# Experimental: 200,000 cells (wild-type CHO-K1 cells or CHO-K1 cells expressing human α11) were incubated with each antibody at desired concentrations in FACS buffer for 30 min at 4° C. Then, the cells were washed with FACS buffer and incubated with secondary antibody at 1:100 dilution for 30 minutes at 4° C. Cells were then washed and fixed with 1% PF A in PBS for 20 minutes at room temperature; washed again and read on a cytometer in FACS buffer.
# mouse α11β1 = mouse α11β1 (Mus musculus, UniProt P61622); experiment: Cross-reactivity with mouse α11β1 (SPR); assay type: binding; settings: for Cross reacts with mouse α11β1: yes/no
# [3] = system: Precision cut kidney slices (PCKS); experiment: Human fibrotic precision cut kidney slices (PCKS) treated with TGF-β1 and PDGFββ, secreted mediators; assay type: cell-based; settings: increasing antibody doses, dose dependent; for inhibition of secreted Col1a1: FIG. 2; for inhibition of secreted IL-11: FIG. 3
# Experimental: Precision cut kidney slices (PCKS) were treated with TGF-β1 and PDGFββ in the presence or absence of Alk5i and increasing doses of anti-α11β1 antibodies. The antibodies provided an inhibition of secreted pro-fibrotic and pro-inflammatory mediators Col1a1 (1994-01-C7 FIG. 2A, 79E3E3 FIG. 2B, and 16E10 FIG. 2C) and IL-11 (1994-01-C7 FIG. 3A, 79E3E3 FIG. 3B, and 16E10 FIG. 3C) in a dose dependent manner.
# [4] = system: CHO cell lines expressing α11; experiment: Collagen gel contraction assay; assay type: cell-based
# Experimental: 24-well plates were blocked with 2% BSA in PBS overnight at 37° C. The following day, the plates were washed 3 times with PBS before being used in the assay. Human CHO cell lines expressing all were harvested and resuspended at 1.25×10^6 in ExpiCHO Expression Medium (Gibco™ Cat #A2910002). The collagen gel solution was prepared by diluting 3 mg/mL stock collagen type I (Gibco™ Collagen I Rat Protein, Tail Cat #A1048301) to I mg/mL in the media containing the CHO cells. Sodium hydroxide was added to the solution to neutralize the pH and 400 μL of the collagen solution was added to each well of the 24-well plates. For the wells where the antibodies were included in the collagen gel solution, CHO cells were prepared at 2.5×10^6 and the antibodies were prepared at 2× final concentration in ExpiCHO media. The cells and antibodies were then combined 1:1 before the addition of the stock collagen type I. The gels were allowed to polymerize for 60 minutes at 37° C. Antibodies were added to the ExpiCHO media, which was then layered on top of the polymerized gel ([…]). The gels were incubated for 6 days at 37° C. before gel contraction was quantified. Images of each well were analyzed using Image J and gel contraction was determined as a percentage of the initial gel area.
# [5] = Table 11, 1994-01-C7 variants, FIG. 4C, read-out: Inhibition of Cell Adhesion IC50
# [6] = Table 11, 1994-01-C7 variants, FIG. 4A
# [7] = Table 12, 16E10 variants, FIG. 5B, read-out: CHO-α11 Adhesion Inhibition IC50
# Sequence of mouse α11β1 (P61622 23-1141 limits assumed): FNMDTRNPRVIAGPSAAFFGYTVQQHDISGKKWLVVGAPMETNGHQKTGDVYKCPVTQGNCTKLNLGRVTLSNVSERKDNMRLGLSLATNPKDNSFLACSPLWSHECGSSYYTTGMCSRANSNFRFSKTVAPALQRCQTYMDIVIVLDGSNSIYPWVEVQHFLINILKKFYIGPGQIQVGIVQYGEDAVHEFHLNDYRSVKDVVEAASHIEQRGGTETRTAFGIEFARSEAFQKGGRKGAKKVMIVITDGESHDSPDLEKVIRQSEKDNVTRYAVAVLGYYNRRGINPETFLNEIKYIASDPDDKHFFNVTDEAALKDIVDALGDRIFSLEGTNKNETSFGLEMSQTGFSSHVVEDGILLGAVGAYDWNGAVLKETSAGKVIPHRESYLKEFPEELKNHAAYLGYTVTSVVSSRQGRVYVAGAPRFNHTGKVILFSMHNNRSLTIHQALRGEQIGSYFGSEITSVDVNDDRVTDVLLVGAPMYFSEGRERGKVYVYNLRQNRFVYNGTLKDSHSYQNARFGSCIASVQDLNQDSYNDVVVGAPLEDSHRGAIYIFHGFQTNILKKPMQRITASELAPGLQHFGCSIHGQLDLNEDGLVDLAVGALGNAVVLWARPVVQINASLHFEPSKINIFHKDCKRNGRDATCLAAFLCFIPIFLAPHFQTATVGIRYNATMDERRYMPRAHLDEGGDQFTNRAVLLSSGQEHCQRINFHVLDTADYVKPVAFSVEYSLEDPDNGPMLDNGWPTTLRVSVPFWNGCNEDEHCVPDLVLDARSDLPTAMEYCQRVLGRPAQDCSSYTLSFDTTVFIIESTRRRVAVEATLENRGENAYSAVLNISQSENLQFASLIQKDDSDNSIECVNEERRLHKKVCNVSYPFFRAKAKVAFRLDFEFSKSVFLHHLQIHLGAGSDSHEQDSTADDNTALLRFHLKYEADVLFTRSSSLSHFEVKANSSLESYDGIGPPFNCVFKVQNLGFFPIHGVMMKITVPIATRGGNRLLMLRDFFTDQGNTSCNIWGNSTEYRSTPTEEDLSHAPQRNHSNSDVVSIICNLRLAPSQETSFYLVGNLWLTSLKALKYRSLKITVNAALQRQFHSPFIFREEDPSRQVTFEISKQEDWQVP
# Sequence of mouse α11β1 (P09055 21-728 partner limits assumed): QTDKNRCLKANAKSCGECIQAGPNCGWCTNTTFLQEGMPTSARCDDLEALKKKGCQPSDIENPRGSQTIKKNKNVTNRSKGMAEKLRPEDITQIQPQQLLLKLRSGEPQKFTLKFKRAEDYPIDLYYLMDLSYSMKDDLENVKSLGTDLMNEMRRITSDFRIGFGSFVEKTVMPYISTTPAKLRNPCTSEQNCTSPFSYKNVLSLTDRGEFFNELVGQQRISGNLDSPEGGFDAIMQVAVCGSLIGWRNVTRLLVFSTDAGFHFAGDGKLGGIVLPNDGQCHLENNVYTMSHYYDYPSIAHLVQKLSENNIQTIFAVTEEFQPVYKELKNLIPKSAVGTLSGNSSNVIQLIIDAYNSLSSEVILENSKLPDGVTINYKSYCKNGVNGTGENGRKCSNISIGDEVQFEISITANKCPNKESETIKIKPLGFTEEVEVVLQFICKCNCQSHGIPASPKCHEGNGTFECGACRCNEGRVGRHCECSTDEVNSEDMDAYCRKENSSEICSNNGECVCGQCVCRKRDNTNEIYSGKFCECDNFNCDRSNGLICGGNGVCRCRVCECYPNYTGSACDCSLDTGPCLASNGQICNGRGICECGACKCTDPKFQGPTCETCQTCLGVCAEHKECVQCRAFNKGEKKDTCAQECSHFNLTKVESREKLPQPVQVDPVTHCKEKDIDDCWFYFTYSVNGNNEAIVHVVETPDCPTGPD
# T2 sequence (Q9UKX5 23-1188): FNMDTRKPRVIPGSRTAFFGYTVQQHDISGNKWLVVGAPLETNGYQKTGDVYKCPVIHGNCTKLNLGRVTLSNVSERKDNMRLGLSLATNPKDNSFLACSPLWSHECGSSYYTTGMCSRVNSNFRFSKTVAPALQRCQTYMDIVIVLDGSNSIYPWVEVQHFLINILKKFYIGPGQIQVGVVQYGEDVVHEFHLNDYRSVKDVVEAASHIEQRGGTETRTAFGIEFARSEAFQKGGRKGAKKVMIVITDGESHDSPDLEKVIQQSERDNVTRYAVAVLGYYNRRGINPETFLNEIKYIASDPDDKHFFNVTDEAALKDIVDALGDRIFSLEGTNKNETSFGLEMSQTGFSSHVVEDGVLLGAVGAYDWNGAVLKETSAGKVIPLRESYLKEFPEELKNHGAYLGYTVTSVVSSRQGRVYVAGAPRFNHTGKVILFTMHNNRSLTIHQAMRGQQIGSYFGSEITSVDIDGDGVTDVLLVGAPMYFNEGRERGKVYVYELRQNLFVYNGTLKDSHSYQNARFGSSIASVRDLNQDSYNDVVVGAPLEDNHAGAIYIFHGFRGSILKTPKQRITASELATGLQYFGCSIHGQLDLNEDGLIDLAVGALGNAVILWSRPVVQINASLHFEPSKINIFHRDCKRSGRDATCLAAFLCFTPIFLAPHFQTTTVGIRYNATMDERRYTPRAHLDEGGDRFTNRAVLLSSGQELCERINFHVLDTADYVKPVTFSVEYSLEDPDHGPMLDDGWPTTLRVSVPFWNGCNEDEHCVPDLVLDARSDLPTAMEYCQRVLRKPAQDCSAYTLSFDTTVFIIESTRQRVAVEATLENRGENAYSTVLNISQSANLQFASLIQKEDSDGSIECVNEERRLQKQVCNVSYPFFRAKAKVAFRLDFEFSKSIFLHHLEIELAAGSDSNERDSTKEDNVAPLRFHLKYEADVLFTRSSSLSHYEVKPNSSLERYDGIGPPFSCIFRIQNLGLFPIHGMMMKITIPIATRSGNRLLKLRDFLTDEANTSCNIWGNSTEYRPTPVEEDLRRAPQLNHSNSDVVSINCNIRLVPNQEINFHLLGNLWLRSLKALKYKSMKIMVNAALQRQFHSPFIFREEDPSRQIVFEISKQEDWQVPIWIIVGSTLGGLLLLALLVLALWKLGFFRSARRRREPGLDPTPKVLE
# T2 sequence (P05556 21-798 partner): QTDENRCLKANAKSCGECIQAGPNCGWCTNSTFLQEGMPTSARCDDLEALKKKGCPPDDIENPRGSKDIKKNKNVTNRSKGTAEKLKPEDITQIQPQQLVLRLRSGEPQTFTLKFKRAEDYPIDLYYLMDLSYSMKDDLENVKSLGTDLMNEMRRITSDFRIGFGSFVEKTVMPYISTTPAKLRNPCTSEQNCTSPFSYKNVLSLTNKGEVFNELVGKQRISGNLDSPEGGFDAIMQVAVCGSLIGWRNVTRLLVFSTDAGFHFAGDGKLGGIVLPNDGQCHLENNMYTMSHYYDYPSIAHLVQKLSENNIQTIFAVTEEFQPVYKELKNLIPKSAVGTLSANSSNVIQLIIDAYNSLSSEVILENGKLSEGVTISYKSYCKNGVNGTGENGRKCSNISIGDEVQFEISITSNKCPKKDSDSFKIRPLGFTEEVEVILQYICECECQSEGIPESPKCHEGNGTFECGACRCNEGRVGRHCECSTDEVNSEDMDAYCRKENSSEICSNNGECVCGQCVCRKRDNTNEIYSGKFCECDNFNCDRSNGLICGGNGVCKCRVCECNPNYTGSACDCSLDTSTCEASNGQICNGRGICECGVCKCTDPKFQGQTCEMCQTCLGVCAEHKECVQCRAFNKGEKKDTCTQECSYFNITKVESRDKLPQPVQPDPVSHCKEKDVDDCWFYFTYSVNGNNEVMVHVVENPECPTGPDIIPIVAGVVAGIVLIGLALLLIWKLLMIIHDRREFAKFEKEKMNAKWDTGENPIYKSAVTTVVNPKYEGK
Molecule,EC50 (Pulmonary Myofibroblast) [nM],IC50 (CHO-hu α11 [1]; [5]) [nM],EC50 (CHO-hu α11 [2]; [6]) [nM],inhibition of secreted Col1a1 [3],inhibition of secreted IL-11 [3],Inhibits CHO-α11 mediated collagen gel contraction [4],IC50 (CHO-hu α11 [1]; [7]) [nM],other results
B1,3.6,3.4,3,inhibition,inhibition,Yes,–,binds cell-mu all (cell-mu all): binds; Cross reacts with mouse α11β1 (mouse α11β1): No by SPR
B2,2.87,3,5.94,–,–,–,–,–
B3,4.6,4.2,5.3,–,–,–,–,–
B4,2.4,3.5,5.5,–,–,–,–,–
B5,–,–,–,inhibition,inhibition,Yes,0.4,Cross reacts with mouse α11β1 (mouse α11β1): No
B6,–,–,–,–,–,–,0.5,–
B7,–,–,–,–,–,–,0.5,–
B8,–,–,–,–,–,–,0.4,–
B9,–,–,–,inhibition,inhibition,Yes,–,"EC50 (CHO-hu α11 [2]; Table 13, 79E3E3 variants): 2.5 nM; Kd (mouse α11β1; mouse α11β1, method not given, read-out: Cross reacts with mouse α11β1 (affinity)): 0.21 nM"

# — patent US20260184794A1, “ANTIBODIES AGAINST INTEGRIN ALPHA 11 BETA 1 AND USES THEREOF” (Momenta Pharmaceuticals, Inc., priority 2022, published 2026)
